Results reported in US20250277196A1, “EPSPS MUTANTS AND METHOD OF ITS USES” (CROPEDIT BIOTECHNOLOGY INC., priority 2021, published 2025).
Substitutions are numbered along the chain they refer to. Values joined by “and” are separate entries in the source; they are usually repeats but may differ in a detail not shown here. Identical values can stand only once.

Tests used:
E. coli lacking EPSPS [1] = experiment: Glyphosate resistance comparison among rice EPSPS mutants: growth of transformed E. coli on M9 medium with different glyphosate concentrations; assay type: cell-based, Escherichia coli; settings: M9 medium; for glyphosate concentration of the medium on which the strain can grow: tested 0, 0.5, 2, 4, 5, 25, 75, 100 mM glyphosate, FIG. 2, FIG. 3
Procedure: (§1) a) PCR system: According to the primer and template mixed PCR system corresponding to the target vector in the above table, the forward primer was 1.25 μl, the reverse primer was 1.25 μl, the template plasmid was 2 μl, the Q5 PCR master mix was 12.5 μl, and ddH2O was […].
b) PCR reaction conditions were as following: the annealing temperature was set according to the annealing temperature corresponding to the target carrier in the above table.
(§2) c) Took out 5 μl of the obtained PCR product and added it to the loading buffer for agarose gel electrophoresis. A band with a size of about 4.5 kb was considered successful.
(§3) d) Used NEB's KLD enzyme mixture to remove the template and connected the PCR product. The connection system was 5 μl KLD buffer, 1 μl KLD MIX, 1 μl PCR product, and ddH2O 3 μl. After ligating at room temperature for 5 min, transformed it into E. coli.
(§4) e) The ligation product was transformed into Dh5a competent E. coli lacking EPSPS. After resuscitation, the cells were washed twice with M9 medium, and then the washed cells were spread on M9 medium and cultured for 48 h. Sequenced the grown single colony (Tsingke Biological Technology Co., Ltd.), and selected the correct mutant to save for future use.
OsWt represents the wild type rice EPSPS(SEQ ID NO:2). […] OsGA represents the mutated rice EPSPS with mutation G172A. (SEQ ID NO:7) OsPS represents the mutated rice EPSPS with mutation P177S. (SEQ ID NO:8) OsGAPS represents the mutated rice EPSPS with mutation G172A and P177S. (SEQ ID NO:9) OsGAVA represents the mutated rice EPSPS with mutation G172A and V403A(SEQ ID NO:4). OsPSVA represents the mutated rice EPSPS with mutation P177S and V403A(SEQ ID NO:5). OsGPV represents the mutated rice EPSPS with mutation G172A, P177S and V403A(SEQ ID NO:6). OsTIPS represents the mutated rice EPSPS with mutation T173I and P177S. (SEQ ID NO: 35). OsTIPT represents the mutated rice EPSPS with mutation T173I and P177T. (SEQ ID NO:36). OsTIPSVA represents the mutated rice EPSPS with mutation T173I, P177S and V403A. (SEQ ID NO:37). OsTIPTVA represents the mutated rice EPSPS with mutation T173I, P177T and V403A. (SEQ ID NO:38). CP4 represents the wild type EPSPS from Agrobacterium tumefaciens. (SEQ ID NO:39)
Each product obtained from the above steps were transformed into E. coli lacking EPSPS. By detecting the growth of the transformed Escherichia coli on M9 medium containing different glyphosate concentrations (0 mM, 0.5 mM, 2 mM, 4 mM, 5 mM, 25 mM, 75 mM, 100 mM), the 1 mM glyphosate here was equivalent to […] glyphosate acid, the glyphosate resistance of rice EPSPS mutants was verified.

E. coli lacking EPSPS [2] = experiment: Resistance test of soybean EPSPS mutant and comparison with wild type (FIG. 4); assay type: cell-based; settings: 0.5 mM glyphosate
Source text: According to the wild-type sequence information of soybean (Glycine max) EPSPS (SEQ ID NO:36), the gene was synthesized and inserted into the vector pKED2 to obtain the vector GmWt. The V403 site of GmWt was mutated to A by PCR, and the vector GmVA expressing the soybean EPSPS mutant protein containing the V403A mutation was obtained. The specific experimental steps were as following:
as §1
(§5) b) PCR reaction conditions were as follows: the annealing temperature was set according to the annealing temperature corresponding to the target carrier in the above table.
as §2, §3
e) The ligation product was transformed into Dh5a competent E. coli lacking EPSPS. […]

E. coli lacking EPSPS [3] = experiment: Resistance test of flax EPSPS V403A mutant and comparison with wild type (FIG. 4); assay type: cell-based; settings: presence of 1 mM and 2 mM glyphosate
Procedure: The flax (Linum usitatissimum) EPSPS mutant sequence(SEQ ID NO: 27) was synthesized and cloned into the pKED2 vector to obtain the vector LuVA. The vector LuWt was created after introducing A403V mutation by PCR.
as §1, §5, §2
d) Used NEB's KLD enzyme mixture to remove the template and then connected the PCR product. The connection system was 5 μl KLD buffer, 1 μl KLD MIX, 1 μl PCR product, and ddH2O 3 μl. After ligating at room temperature for 5 min, transformed it into E. coli.
e) The ligation product was transformed into Dh5a competent E. coli lacking EPSPS. After resuscitation, the cells were washed twice with M9 medium, and then the washed cells were spread on M9 medium and cultured for 48 h. […]

E. coli lacking EPSPS [4] = experiment: Resistance identification of flax EPSPS mutants LuGPV, LuTIPT, LuTIPTVA (FIG. 5, FIG. 6); assay type: cell-based
Source text: The G172 position and P177 position of LuVA were mutated into A and S at the same time by PCR, and a 3-point mutant LuGPV was obtained.
The T173 and P177 positions of LuWT were simultaneously mutated to I and T by PCR, and a […] mutant LuTIPT was obtained.
The T173 and P177 positions of LuVA were simultaneously mutated to I and T by PCR, and a 3-point mutant LuTIPTVA was obtained.
as §1, §5, §2, §3, §4
The resistance results were shown in FIG. 5: LuWt(SEQ ID NO:26) represents the EPSPS2 gene of flax, LuGPV (SEQ ID NO:30) represents the flax G172A+P177S+V403A three-point mutant. The resistance results were shown in FIG. 6: LuTIPT (SEQ ID NO:28) was the flax T173I+[…] double-point mutants, LuTIPTVA (SEQ ID NO:29) was flax T173I+P177T+V403A three-point mutants.

B1: OsGAPS (protein)
chain: MAAKAEEIVLQPIREISGAVQLPGSKSLSNRILLLSALSEGTTVVDNLLNSEDVHYMLEALKALGLSVEADKVAKRAVVVGCGGKFPVEKDAKEEVQLFLGNAATAMRSLTAAVTAAGGNATYVLDGVPRMRERPIGDLVVGLKQLGADVDCFLGTECPPVRVKGIGGLPGGKVKLSGSISSQYLSALLMAAPLALGDVEIEIIDKLISIPYVEMTLRLMERFGVKAEHSDSWDRFYIKGGQKYKSPGNAYVEGDASSASYFLAGAAITGGTVTVQGCGTTSLQGDVKFAEVLEMMGAKVTWTDTSVTVTGPPREPYGKKHLKAVDVNMNKMPDVAMTLAVVALFADGPTAIRDVASWRVKETERMVAIRTELTKLGASVEEGPDYCIITPPEKLNITAIDTYDDHRMAMAFSLAACADVPVTIRDPGCTRKTFPNYFDVLSTFVRN
modifications: This sequence is synthesized in lab.
E. coli lacking EPSPS [1]; 0 mM glyphosate, complementation of E. coli EPSPS function
  growth on medium containing 0 mM glyphosate: cannot grow

B2: OsGAVA (protein)
chain: B1 chain with S109P, V335A
modifications: This sequence is synthesized in lab.
E. coli lacking EPSPS [1]
  glyphosate concentration of the medium on which the strain can grow: ≤ 75 mM

B3: OsTIPTVA (protein)
chain: B1 chain with A104G, T105I, S109T, V335A
modifications: This sequence is synthesized in lab.
E. coli lacking EPSPS [1]
  glyphosate concentration of the medium on which the strain can grow: 100 mM and 75 mM

B4: OsPSVA (protein)
chain: B1 chain with A103G, V335A
modifications: This sequence is synthesized in lab.
E. coli lacking EPSPS [1]
  glyphosate concentration of the medium on which the strain can grow: ≤ 4 mM

B5: OsPS (protein)
chain: B1 chain with A104G
modifications: This sequence is synthesized in lab.
E. coli lacking EPSPS [1]
  growth on 0.5 mM glyphosate medium: can grow

B6: OsGA (protein)
chain: B1 chain with S109P
modifications: This sequence is synthesized in lab.
E. coli lacking EPSPS [1]
  growth on 0.5 mM glyphosate medium: can grow

B7: OsWt: wild type rice EPSPS (SEQ ID NO:2), chloroplast transit peptide removed (protein)
chain: B1 chain with A104G, S109P
modifications: This sequence is synthesized in lab.
E. coli lacking EPSPS [1]
  growth on 0.5 mM glyphosate medium: cannot grow

B8: GmVA (protein)
DNA: MAAAEKPSTAPEIVLEPIKDISGTITLPGSKSLSNRILLLAALSEGTTVVDNLLYSEDIHYMLGALRTLGLRVEDDQTTKQAIVEGCGGLFPTIKESKDEINLFLGNAGTAMRPLTAAVVAAGGNASYVLDGVPRMRERPIGDLVAGLKQLGADVDCFLGTNCPPVRVNGKGGLPGGKVKLSGSISSQYLTALLMAAPLALGDVEIEIVDKLISVPYVEMTLKLMERFGVSVEHSGNWDKFLVHGGQKYKSPGNAFVEGDASSASYFLAGAAVTGGTITVNGCGTNSLQGDVKFAEVLEKMGAKVTWSENSVTVTGPPQDSSGQKVLQGIDVNMNKMPDAAMTLAVVALFANGQTAIRDVASWRVKETERMIAICTELRKLGATVEEGPDYCVITPPEKLNVTAIDTYDDHRMAMAFSLAACGDVPVTIKDPGCTRKTFPDYFEVLERFTRH
modifications: This sequence is synthesized in lab.
E. coli lacking EPSPS [2]
  growth status compared with GmWt: significantly higher than that of GmWt

B9: LuVA (protein)
DNA: MTVPEEIVLQPIKDISGIVTLPGSKSLSNRILLLAALSEGKTVVDNLLNSDDVHYMLGALKTLGLNVEHSSEQKRAIVEGRGGVFPVGKLGKNDIELFLGNAGTAMRPLTAAVTAAGGNSSYILDGVPRMRERPIGDLVVGLKQLGADVSCSSTSCPPVHVNAKGGLPGGKVKLSGSISSQYLTALLMAAPLALGDVEIEIVDKLISVPYVDMTLKLMERFGVAVEHSGSWDRFFVKGGQKYKSPGNAYVEGDASSASYFLAGAAITGGTITVEGCGTSSLQGDVKFAEVLEKMGAKVTWTETSVTVTGPPRDASGKKHLRAVDVNMNKMPDAAMTLAVVALYADGPTAIRDVASWRVKETERMIAVCTELRKLGATVEEGPDYCIITPPEKLSIAEIDTYDDHRMAMAFSLAACADVPVTIRDPGCTKKTFPDYFEVLERYTKH
modifications: This sequence is synthesized in lab.
E. coli lacking EPSPS [3]
  growth status compared with LuWt: significantly better than that of LuWt

B10: LuTIPTVA (protein)
DNA: B9 DNA with T104I, P108T
modifications: This sequence is synthesized in lab.
E. coli lacking EPSPS [4]; FIG. 6
  resistance compared with LuTIPT: higher than that of LuTIPT

B11: LuGPV (protein)
DNA: B9 DNA with G103A, P108S
modifications: This sequence is synthesized in lab.
E. coli lacking EPSPS [4]; 100 mM glyphosate pressure
  resistance compared with CP4 (colony saturation): higher than CP4
E. coli lacking EPSPS [4]; flax EPSPS mutant in E. coli, FIG. 5
  glyphosate resistance: strong glyphosate resistance
